T1: human IL-22 (human, UniProt Q9GZX6 34-179)
T1 sequence: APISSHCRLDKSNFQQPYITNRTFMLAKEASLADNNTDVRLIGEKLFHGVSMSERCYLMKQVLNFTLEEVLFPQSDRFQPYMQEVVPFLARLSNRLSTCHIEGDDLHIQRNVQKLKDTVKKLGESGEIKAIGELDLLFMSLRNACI

T2: IL-26 (human, UniProt Q9NPH9)
T2 construct: coated on the ELISA plate at 1 µg/ml; also called human IL-26
T2 sequence (cytokine, looked up): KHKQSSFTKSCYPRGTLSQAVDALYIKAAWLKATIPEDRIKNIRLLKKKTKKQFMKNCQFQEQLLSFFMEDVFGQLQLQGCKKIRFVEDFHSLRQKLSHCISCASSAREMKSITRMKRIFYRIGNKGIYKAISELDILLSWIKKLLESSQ

T3: murine IL-22 (murine, UniProt Q9JJY9 34-179)
T3 construct: also called mouse IL-22
T3 sequence: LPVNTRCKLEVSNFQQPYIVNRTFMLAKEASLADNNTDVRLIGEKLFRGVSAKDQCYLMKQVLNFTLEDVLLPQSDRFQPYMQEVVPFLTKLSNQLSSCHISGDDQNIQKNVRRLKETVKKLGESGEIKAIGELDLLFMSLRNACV

T4: biotinylated IL-22 with an N-terminal His/FLAG tag (bio.IL-22H/F) (human, UniProt Q9GZX6 34-179, biotinylated (site not stated))
T4 construct: not shown: N-terminal His/FLAG tag
T4 sequence: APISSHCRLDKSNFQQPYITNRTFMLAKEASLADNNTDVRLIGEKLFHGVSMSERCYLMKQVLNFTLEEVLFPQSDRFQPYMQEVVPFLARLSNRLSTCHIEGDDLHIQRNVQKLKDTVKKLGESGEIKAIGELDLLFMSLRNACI


How the values were obtained:
human IL-22 [1] = target: T1, human IL-22; assay: cell-based or functional assay
BSA = target: T5, BSA (bovine, UniProt P02769); assay: ELISA: wells labelled BSA, IgG at 1 µg/ml, HRP anti-human IgG, A450
T5 construct: background wells labelled BSA; also called bovine serum albumin
Experimental: (§1) Cross species reactivity of germlined and non-germlined optimized antibodies were determined as follows: ELISA plates (Costar, Cat. #3590) were coated overnight with 1 μg/ml of rat, mouse, or human IL-22 or human IL-26 in PBS buffer. Plates were washed with PBST buffer (0.05% Tween20 in PBS) 3 times, then blocked with 1% BSA (Sigma A8918)/PBST for 1 hr at RT. Antibodies were added at 1 μg/ml, incubated 1 hr at 25° C. […] The plates were incubated for 1 hour at 25° C., then washed with PBST, and developed with TMB (KPL, Cat. #50-76-04). Reaction was stopped with 0.18 M H₂S0₄. Plates were read at OD 450 nm.

IL-26 = target: T2, IL-26; assay: ELISA: plate coated with 1 µg/ml human IL-26, IgG at 1 µg/ml, HRP anti-human IgG, A450
Experimental: as §1

murine IL-22 = target: T3, murine IL-22; assay: ELISA: plate coated with 1 µg/ml antigen, IgG at 1 µg/ml, HRP anti-human IgG, A450
Experimental: as §1

[2] = target: T4, biotinylated IL-22 with an N-terminal …; assay: DELFIA competition assay: scFv titrated against bio.IL-22H/F binding to the captured IL-22 receptor complex
Experimental: (§2) Microtiter plates were coated with an IL-22 receptor complex antibody (1 μg/ml in PBS), and incubated for 1.5 hours at room temperature. Plates were washed three times in PBST, and blocked for 1 hour at room temperature with 2% MPBS. After a further 3 washes, diluted cell conditioned medium containing an IL-22 receptor complex was added and incubated overnight at 4° C. Crude scFv supernatants were prepared as described above. The following day, 25 μl of diluted scFv sample and 25 μl of bio.IL-22H/F (6 ng/ml) were added to the washed plates, and incubated for 1.5 hours at room temperature. Plates were washed 3 times in PBST, then binding of bio.IL-22H/F to the IL-22 receptor complex was detected with Europium-Streptavidin and the DELFIA® reagent kit (PerkinElmer). Time Resolved Fluorescence was measured using a Victor 2™ Plate Reader (Perkin Elmer).
(§3) Purified scFv from positive clones identified from the screening were tested in the DELFIA® IL-22 receptor complex competition assay as described above. A titration of scFv concentrations was used in order to establish the clone potency as measured by IC₅₀ values in the assay. Fourteen optimized clones were designated 097D09, 062A09, 062G05, 087B03, 367D04, 368D04, 166B06, 166G05, 375G06, 376B10, 354A08, 355B06, 355E04, and 356A11.

human IL-22 [3] = target: T1, human IL-22; assay: cell-based or functional assay; remark: listed apart in the source
[4] = target: T4, biotinylated IL-22 with an N-terminal …; assay: IL-22 receptor complex inhibition assay (bio.IL-22H/F binding to IL-22 receptor complex, DELFIA), scFv
Experimental: (§4) Both the IL-22/IL-22R binding assay (described above) and the IL-22/IL-22 receptor complex assay (described below) were used. ScFv concentrations were titrated in order to establish the clone potencies as measured by assay IC₅₀ values. These were determined using GraphPad Prism software and four-parameter logistic equation curve fitting.
as §2

[5] = target: T4, biotinylated IL-22 with an N-terminal …; assay: biotinylated IL-22 binding IL-22 receptor complex competition assay, purified scFv, parent
Experimental: as §2
Sequence data for the six parent clones was used to identify the nearest germline sequence for the heavy and light chain of each clone. Appropriate mutations were made using standard site directed mutagenesis techniques with the appropriate mutagenic primers. Mutation of sequences was confirmed by sequence analysis. Purified scFv from the germlined parent clones were tested in the biotinylated IL-22 binding IL-22 receptor complex competition assay as described earlier, in order to establish the clone potency as measured by IC₅₀ values in the assay.

[6] = target: T4, biotinylated IL-22 with an N-terminal …; assay: DELFIA competition assay: scFv titrated against bio.IL-22H/F binding to the captured IL-22 receptor complex; remark: listed apart in the source
Experimental: as §2, §3

[7] = target: T4, biotinylated IL-22 with an N-terminal …; assay: as above; remark: listed apart in the source
Experimental: as §4, §2

T5 sequence (P02769 25-607 limits assumed): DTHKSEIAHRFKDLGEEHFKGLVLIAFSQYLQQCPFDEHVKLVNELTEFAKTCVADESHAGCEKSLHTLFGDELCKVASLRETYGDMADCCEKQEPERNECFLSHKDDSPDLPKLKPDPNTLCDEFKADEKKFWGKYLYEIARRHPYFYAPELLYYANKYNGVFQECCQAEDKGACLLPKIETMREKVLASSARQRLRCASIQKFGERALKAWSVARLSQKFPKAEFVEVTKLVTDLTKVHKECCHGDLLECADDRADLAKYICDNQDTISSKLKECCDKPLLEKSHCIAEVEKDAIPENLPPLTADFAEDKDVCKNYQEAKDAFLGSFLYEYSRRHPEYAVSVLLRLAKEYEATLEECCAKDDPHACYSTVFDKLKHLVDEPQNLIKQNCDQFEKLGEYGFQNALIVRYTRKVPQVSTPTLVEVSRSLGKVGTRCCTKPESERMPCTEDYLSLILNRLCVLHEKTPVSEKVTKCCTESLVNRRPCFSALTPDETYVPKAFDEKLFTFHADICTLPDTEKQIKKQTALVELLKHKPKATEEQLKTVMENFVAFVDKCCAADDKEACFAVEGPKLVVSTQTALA

Row | IC50 of IgG in BaF3-IL-22 proliferation assay (human IL-22 [1]) | binding result (murine IL-22) | IC50 of scFv in BaF3-IL-22 proliferation assay (human IL-22 [1]) | IC50 [2] | IC50 (pM) of germlined IgG in BaF3-IL-22R proliferation assay (human IL-22 [3]) | IC50 [4] | IC50 [5] | IC50 [6] | IC50 [7] | Binder | binding result (BSA) | binding result (IL-26)
1 | 127 pM | binds |  |  |  |  |  |  |  | 368D04 IgG (non-germlined) (antibody, V domains shown) VH: EVQLVESGGGVVRPGGSLRLSCAASGFTFDDYGMNWVRQAPGKGLEWVSGVNWNGGTRDYAASVKGRFTISRDNAKNSLYLQMNSLRAEDTALYYCARGWYSGAAWNMGYWGRGTLVTVSS VL: QAVLTQPSSVSGSPGQSITISCTGASGDVGAYNFVSWYQQHPGKTPKLIIYDVNKRPSGVSNRFSGSKSGNTASLTISGLQAEDESDYYCASLVSDFSVVFGGGTKVTVLG | no binding (tested: 1 µg/ml (single concentration)) | no binding (tested: 1 µg/ml (single concentration))
2 |  |  | 460 pM | 620 pM |  |  |  |  |  | 166B06 scFv (non-germlined) (scFv, Optimized clone derived from GIL68) scFv: EVQLVQSGAEVKKPGASVKVSCQASGYTFSDYYIHWVRQTPGQGFEWMGWVNPDTGGTRYAQKFQGWVTMTRDMSNTTAYMELPRLRDDDTAVYYCARDLTGFDPFDIWGQGTLVTVSSGGGSSGGGGSGGGGSAQSVLTQPPSVSVAPGKTATITCGGNNFRNKRVHWYQQRPGQAPVLVIYYDSDRPSGIPERFSGSRSGNTATLTISRVEAGDEADFYCQVWDLFNDNGVFGGGTKLTVLGAAAH |  | 
3 | 92 pM | binds |  |  | 92 pM |  |  |  |  | 355B06 germlined IgG (antibody, V domains shown) VH: QVQLVQSGAEVKKPGASVKVSCKASGYTFTDYYMHWVRQAPGQGLEWVGWINPYTGSAFYAQKFRGRVTMTRDTSISTAYMELSRLRSDDTAVYYCAREPEKFGESSGQLWGRGTLVTVSS VL: QAVLTQPPSVSGAPGQRVTISCTGSSSNIGAGYGVHWYQQLPGTAPKLLIYGDSNRPSGVPDRFSGSKSGTSASLAITGLQAEDEADYYCQSYDSGLSGYVFGGGTQLTVLG | no binding (tested: 1 µg/ml (single concentration)) | no binding (tested: 1 µg/ml (single concentration))
4 | 100 pM | binds |  |  | 100 pM |  |  |  |  | 355E04 germlined IgG (antibody, V domains shown) VH: QVQLVQSGAEVKKPGASVKVSCKASGYTFTHYYMHWVRQAPGQGLEWVGWINPYTGGAFYAQKFQGRVTMTRDTSISTAYMELSRLRSDDTAVYYCAREPEKFDSPNAEIWGRGTLVTVSS VL: QAVLTQPPSVSGAPGQRVTISCTGSSSNIGAGYGVHWYQQLPGTAPKLLIYGNSNRPSGVPDRFSGSKSGTSASLAITGLQAEDEADYYCQSYDSSLSGYVFGGGTQLTVLG | no binding (tested: 1 µg/ml (single concentration)) | no binding (tested: 1 µg/ml (single concentration))
5 |  |  |  | 10600 pM |  | 7000 pM | 9000 pM | 7450 pM | 10000 pM | GIL68 scFv (non-germlined parent) (scFv) scFv: EVQLVQSGAEVKKPGASVKVSCQASGYTFSDYYIHWVRQTPGQGFEWMGWVNPDTGGTRYAQKFQGWVTMTRDMSNTTAYMELPRLRDDDTAVYYCARDLTGFDPFDIWGQGTLVTVSSGGGGSGGGGSGGGGSAQSVLTQPPSVSVAPGKTATITCGGNNFRNKRVHWYQQRPGQAPVLVIYYDSDRPSGIPERFSGSRSGNTATLTISRVEAGDEADFYCQVWDSSTDRPLFGGGTKLTVLGAAA |  | 

Row | Binder | IC50 of IgG in BaF3-IL-22 proliferation assay (human IL-22 [1]) | binding result (murine IL-22) | IC50 of scFv in BaF3-IL-22 proliferation assay (human IL-22 [1]) | IC50 [2] | IC50 (pM) of germlined IgG in BaF3-IL-22R proliferation assay (human IL-22 [3]) | IC50 [4] | IC50 [5] | IC50 [6] | IC50 [7] | binding result (BSA) | binding result (IL-26)
6 | 097D09 IgG (non-germlined) (antibody, V domains shown, IgG) VH: EVQLVESGGGLVTPGGSLRLSCAASGFTFSDYYMSWVRQAPGRGLEWVSAISGSGGSTYYADSVKGRITISRDNAKNSLYLQMSSLRSEDTAVYYCARGLWVWDPLDYWGRGTLVTVSS VL: DIQMTQSPSTLSASIGDRVTITCRASEGIYHWLAWYQQKPGKAPKLLIYKASSLASGAPSRFSGSGFGTDFTLTISSLQPDDFATYYCQQYSEFAWTFGGGTKLEIKR | 197 pM | no binding (tested: 1 µg/ml (single concentration)) |  |  |  |  |  |  |  | no binding (tested: 1 µg/ml (single concentration)) | no binding (tested: 1 µg/ml (single concentration))

From US20070243589A1 (Pfizer, published 2007)
